Publication PMC11009304

Key:
[1] = target: hPIV3 L–P polymerase complex (L–P4) (human parainfluenza virus type 3 (hPIV3)) (UniProt P12577); assay: SEC-MALS; purified L–P complex on an XBridge Protein BEH SEC column (200 Å) with a DAWN MALS detector, 0.5 ml/min, buffer B; bovine serum albumin as control
[2] = target: hPIV3 L–P polymerase complex (L–P4) (human parainfluenza virus type 3 (hPIV3)) (UniProt P12577); assay: SEC; analytical SEC of the purified L–P complex, Superdex 200 Increase 5/150 GL, buffer B (20 mM Tris-HCl pH 7.5, 300 mM NaCl, 1% glycerol, 6 mM MgSO4, 1 mM DTT), calibrated with standard markers
[3] = target: human parainfluenza virus type 3 (hPIV3) phosphoprotein (P) (human parainfluenza virus type 3 (hPIV3)) (UniProt P06162); assay: cryo-EM structure

Row | Substance | stoichiometry N [1] | stoichiometry N [2] | stoichiometry N [3]
1 | hPIV3 L–P polymerase complex (L–P4) (from UniProt P12577;P06162) | 2 | 2 | 
2 | human parainfluenza virus type 3 (hPIV3) phosphoprotein (P) (from UniProt P06162 1-604) (natural protein) |  |  | 4
